Data published in patent publication US20250333441A1, “POLYPEPTIDE INHIBITORS AND USES THEREOF” (Neuracle Science Co., Ltd., priority 2021, published 2025).

Target: T1, FAM19A5 (isoform 2) - full-length LRRC4B protein complex (Homo sapiens, UniProt Q7Z5A7)
T1 construct: expressed in transfected cells; host or cells: HEK293
Assay: Immunofluorescence: dissociation of FAM19A5 from full-length LRRC4B in HEK293 cells
Format: cell-based
Settings: HEK293 cells expressing FAM19A5 isoform 2 and LRRC4B, treated 30 minutes
Description: Since LRRC4B protein fragments containing the binding domain described in Example 2 (e.g., LRRC4B (453-576); i.e., construct #11 in Table 6) was able to bind to FAM19A5 protein with high affinity, it was next assessed whether such protein fragments could compete with naturally existing LRRC4B protein for binding to FAM19A5 protein, and thereby, dissociate the FAM19A5-LRRC4 protein family complex. Briefly, HEK293 cells expressing both FAM19A5 isoform 2 and LRRC4B protein were treated (i.e., cultured in vitro) for 30 minutes with either LRRC4B (453-576)-hFc or mutant LRRC4B (453-576)-hFc (includes alanine substitutions at positions 488 and 489 of SEQ ID NO: 2; SEQ ID NO: 16) protein fragments. Then, the cells were immunostained with anti-FAM19A5 (1-65) and anti-LRRC4B antibodies to determine the expression of FAM19A5 and full-length LRRC4B proteins, respectively. The hFc-fused LRRC4B protein fragments were determined using an anti-hIgG antibody. The nuclei were stained with Hoechst 33342.

T1 sequence (Q7Z5A7 1-125 isoform Q7Z5A7-2, one chain of several): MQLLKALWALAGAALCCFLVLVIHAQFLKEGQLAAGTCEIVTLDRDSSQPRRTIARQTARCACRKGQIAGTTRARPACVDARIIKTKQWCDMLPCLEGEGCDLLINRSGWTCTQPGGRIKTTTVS

B1: LRRC4B (453-576): LRRC4B fragment, amino acids 453-576 of SEQ ID NO: 2 (SEQ ID NO: 7); used hFc-fused (protein)
chain: VSAVDPVAAGGTGSGGGGPGGSGGVGGGSGGYTYFTTVTVETLETQPGEEALQPRGTEKEPPGPTTDGVWGGGRPGDAAGPASSSTTAPAPRSSRPTEKAFTVPITDVTENALKDLDDVMKTTK
modifications: human Fc fusion in use
notes: used hFc-fused
dissociation of FAM19A5 from full-length LRRC4B protein: FAM19A5 was largely dissociated from the full-length LRRC4B protein
